These results are taken from patent publication US20040086519A1.

The assay has as its target P-selectin (pig). The experiment in a line: cell-based or functional assay.

Take “soluble P-selectin glycoprotein ligand-1 (PSGL-1) chimera (rPSGL-Ig) (from UniProt Q14242 42-305) (Fc fusion)”: the decrease in adhesion of 51Cr-platelets to deeply injured arterial segments 1 week following repeat angioplasty (pigs, in vivo) is 85%; the decrease in adhesion of 111In-neutrophils to deeply injured arterial segments 1 week following repeat angioplasty (pigs, in vivo) worked out at 75%; the decrease in neutrophil adhesion at stented coronary sites 4 weeks after stenting (pigs, in vivo) came to 49%; the decrease in platelet adhesion at stented coronary sites 4 weeks after stenting (pigs, in vivo) was determined as 39%.
